Target: BTN3A1 full intracellular domain (BFI) (Homo sapiens, UniProt O00481)
Assay: ITC

BTN3A1 full intracellular domain (BFI), sequence (O00481 272-513): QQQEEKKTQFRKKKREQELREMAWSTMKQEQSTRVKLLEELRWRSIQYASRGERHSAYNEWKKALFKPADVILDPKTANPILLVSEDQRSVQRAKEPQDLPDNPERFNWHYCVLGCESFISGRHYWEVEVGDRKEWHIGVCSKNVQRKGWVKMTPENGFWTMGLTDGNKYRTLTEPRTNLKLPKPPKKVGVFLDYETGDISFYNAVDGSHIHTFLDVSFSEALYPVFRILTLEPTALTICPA

Kd	Binder
0.78 µM	BTN2A1 ID271 (protein, HMBPP) KLQKEKKILSGEKEFERETREIALKELEKERVQKEEELQVKEKLQEELRWRRTFLHAVDVVLDPDTAHPDLFLSEDRRSVRRCPFRHLGESVPDNPERFDSQPCVLGRESFASGKHYWEVEVENVIEWTVGVCRDSVERKGEVLLIPQNGFWTLEMHKGQYRAVSSPDRILPLKESLCRVGVFLDYEAGDVSFYNMRDRSHIYTCPRSAFSVPVRPFFRLGCEDSPIFICPALTGANGVTVPEEGLTLHRVGTHQSL
190 µM	BTN2A1 ID271 (protein, 4-M-HMBPP) KLQKEKKILSGEKEFERETREIALKELEKERVQKEEELQVKEKLQEELRWRRTFLHAVDVVLDPDTAHPDLFLSEDRRSVRRCPFRHLGESVPDNPERFDSQPCVLGRESFASGKHYWEVEVENVIEWTVGVCRDSVERKGEVLLIPQNGFWTLEMHKGQYRAVSSPDRILPLKESLCRVGVFLDYEAGDVSFYNMRDRSHIYTCPRSAFSVPVRPFFRLGCEDSPIFICPALTGANGVTVPEEGLTLHRVGTHQSL
